Columns and labels:
Assay in all cases: G assay
[1] = target: …
[2] = target: …; remark: listed apart in the source
[3] = target: Peptide #1829, biotin-…
[4] = target: Peptide #1791, biotin-…
[5] = target: …; remark: listed apart in the source
[6] = target: Peptide #1846, biotin-[…]
[7] = target: Peptide #1841, biotin-…
[8] = target: Peptide #1852, biotin-[…]
[9] = target: …; remark: listed apart in the source

Measured: binding result

B1: GST-Syntrophin 1 alpha PDZ domain 1 fusion protein (other, not shown: a dimerising Fc or GST; small tags and cut ends)
chain: QRRRVTVRKADAGGLGISIKGGRENKMPILISKIFKGLAADQTEALFVGDAILSVNGEDLSSATHDEAVQVLKKTGKEVVLEVKYMKDVSPYFK
notes: also called Syntrophin 1 alpha d1 (52.5); Syntrophin 1 alpha D1
binds: [1]

B2: GST-INADL PDZ domain 3 fusion protein (other, not shown: a dimerising Fc or GST; small tags and cut ends)
chain: PGSDSSLFETYNVELVRKDGQSLGIRIVGYVGTSHTGEASGIYVKSIIPGSAAYHNGHIQVNDKIVAVDGVNIQGFANHDVVEVLRNAGQVVHLTLVRRKTSSSTSRIHRD
notes: also called INADL d3 (96.3); INADL D3
binds: [2] | [3]

B3: GST-PAR3 PDZ domain 3 fusion protein (other, not shown: a dimerising Fc or GST; small tags and cut ends)
chain: PREFLTFEVPLNDSGSAGLGVSVKGNRSKENHADLGIFVKSIINGGAASKDGRLRVNDQLIAVNGESLLGKTNQDAMETLRRSMSTEGNKRGMIQLIVASRISKCNELKSNSS
notes: also called PAR3 d3 (278.1); PAR3 D3
binds: [2] | [4] | [5] | [1]

B4: GST-RIM2 PDZ domain 1 fusion protein (other, not shown: a dimerising Fc or GST; small tags and cut ends)
chain: TLNEEHSHSDKHPVTWQPSKDGDRLIGRILLNKRLKDGSVPRDSGAMLGLKVVGGKMTESGRLCAFITKVKKGSLADTVGHLRPGDEVLEWNGRLLQGATFEEVYNIILESKPEPQVELVVSRPIG
notes: also called RIM2 (177.4); RIM-2 d1
binds: [2] | [4] | [6] | [5] | [7] | [8] | [9] | [3]

B5: GST-ZO-1 PDZ domain 2 fusion protein (other, not shown: a dimerising Fc or GST; small tags and cut ends)
chain: ISSQPAKPTKVTLVKSRKNEEYGLRLASHIFVKEISQDSLAARDGNIQEGDVVLKINGTVTENMSLTDAKTLIERSKGKLKMVVQRDRATLLNSS
notes: also called ZO-1 d2 (241.3); ZO-1 D2
binds: [2] | [4] | [5] | [7] | [1] | [8] | [9] | [3]
